Data reported in PMC8795569.

Target: HA-APP (full-length, APP695 spliced isoform), P05067
Assay: ELISA

B1: MDGA1-Fc (MDGA1 extracellular domains fused to human Fc) (Fc fusion)
chain: QGVYAPAQAQIVHAGQACVVKEDNISERVYTIRESDTLVLQCLVTGHPRPQVRWTKTAGSASDKFQETSVFNETLRIERIARTQGGRYYCKAENGVGVPAIKSIRVDVQYLDEPVLTVHQTVSDVRGNFYQEKTVFLRCTVSSNPPARFIWKRGSDTLSHSQDNGVDIYEPLYTQGETKVLKLKNLRPQDYASYTCQVSVRNVCGIPDKSITFQLTNTTAPPTLKLSVNETLVVNPGENVTVQCLLTGGDPLPQLHWSHGPGPLPLGALAQGGTLSIPSVQARDSGYYNCTATNNVGNPAKKTVNLLVRSLKNATFQITPDMIKESENIQLGQDLKLSCHVDAVPQEKVNYQWFKNGKPARTSKRLLVTRNDPELPAVTSSLELIDLHFSDYGTYLCVASFPGSPVPDLSVEVNISSETVPPTISVPKGRAVVTVREGSPAELQCEVRGKPRPPVLWSRVDKEAALLPSGLALEETPDGKLRVERVSREMSGTYRCQTARYNGFNVRAREAQVQLTVHFPPEVEPSSQDVRQALGRPVLLRCSLLRGSPQRIASAVWRFKGQLLPPPPVLPAAAAEGPDHAELRLDALTRDSSGNYECSVSNDVGSATCLFQVSAKAYSPEFYFDTPNPTRSHKLSKNYSYVLQWTQREPDAVDPVLNYRLSIRQLNQHNAMVKAIPVRRVEKGQLLEYTLTDLRVPHSYEIHLTPYTTFGAGDMASRVIHYTEPINSPSLSDNTCHFEDEKICGYTQDLTDNFDWTRQNALTQNPKRSPNTGPPTDISGTPEGYYMFIETSRPRELGDRARLVSPLYNASAKFYCVSFFYHMYGKHIGSLNLLVRSRNKGTLDTHAWSLSGNKGNVWQQAHVPINPSGPFQIIFEGVRGSGYLGDIAIDDVTLKKGECPRRQMDPNKVVVMPGS
modifications: not checked
Kd: 84.7 nM
